Test results: publication PMC11906780 (Scientific Reports, 2025)

B1: human monoclonal antibody 3G12 (recombinant human IgG1) (antibody, V domains shown)
VH: QLQLQESGPGLVKPSETLSLTCTVSGGSISSSNYYWGWIRQPPGKGLEWIASIHDSGSIYYNPSLRSRVTISVDTSKNQFSLKLSSVTAADTAVYYCARHLVWFGELRNNWFDPWGQGTLVTVAS
VL: EIVMTQSPATLSVSPGERATLSCRASQSVNSNLAWYQHKPGQAPRLLIYGASTRATGIPARFSGSGSGTDFTLTISSLQSEDFAVYYCQQYNNWPLFGPGTKVDLK
notes: also called mAb 3G12; source: CHO-S, electroporated, purified (HiTrap Protein G)
B2: human monoclonal antibody 2D10 (recombinant human IgG1) (antibody, V domains shown)
VH: QVQLVQSGPEVKKPGASVRLSCKASGYVFTNYGVSWVRQAPGQGLEWMGWSSPYNGNTYYAQKLKARVTMTTDTSTNTAYMELRSLRSDDTAVYYCGRDMLGVVQAVAGPFDSWGQGTLVTVSS
VL: DTPMTQSPSSVSASVGDRVTISCRASQGISNSLAWYQQKLGKAPQLLIYAASSLQSGVPSRFSGSGSGTDFTLTISSLQPEDFATYYCQQTNTFPFTFGPGTKVEVR
notes: also called mAb 2D10; source: CHO-S, electroporated, purified (HiTrap Protein G)
B3: Fab 3D3 (papain fragment of mAb 3D3) (Fab, V domains shown)
VH: EEQLVESGGGLVQPGRSLRLSCVGSGLRFEEHAMHWVRQAPGRGLEWVSGISWNSGSVGYADSVKGRFTTSRDNAKDILFLEMNTLRSEDTALYFCAIMVATTKNDFHYYKDVWGKGTTVTVSS
VL: QIVLTQSPATLSLSPGERATLSCRASQSVSNHLAWYQQKPGQAPRLLIYETSNRATGIPPRFSGSGSGTDFTLTISSLEPEDFAVYYCQQRNNWYTFGQGTKLEIK
notes: source: papain digestion of the full length mAb from CHO-S, Fc removed with protein A, purified (Superdex 200 SEC)
B4: Fab 2D10 (papain fragment of mAb 2D10) (Fab, V domains shown)
VH: B2 VH
VL: B2 VL
notes: as for B3
B5: human monoclonal antibody 3D3 (recombinant human IgG1) (antibody, V domains shown)
VH: B3 VH
VL: B3 VL
notes: also called mAb 3D3; TRL3D3; source: CHO-S, electroporated, purified (HiTrap Protein G)

Experiments:
[1] = biological target: T1, RSV strain A2 (RSV/A2) G glycoprotein ectodomain (RSV G^ecto) (Human respiratory syncytial virus A, …, UniProt P03423); test: BLI; conditions: both partners purified
T1 construct: not shown: 6xHistidine-Tag, C-terminal, kept
T1 sequence (P03423 whole entry, looked up, the tested form may be a part): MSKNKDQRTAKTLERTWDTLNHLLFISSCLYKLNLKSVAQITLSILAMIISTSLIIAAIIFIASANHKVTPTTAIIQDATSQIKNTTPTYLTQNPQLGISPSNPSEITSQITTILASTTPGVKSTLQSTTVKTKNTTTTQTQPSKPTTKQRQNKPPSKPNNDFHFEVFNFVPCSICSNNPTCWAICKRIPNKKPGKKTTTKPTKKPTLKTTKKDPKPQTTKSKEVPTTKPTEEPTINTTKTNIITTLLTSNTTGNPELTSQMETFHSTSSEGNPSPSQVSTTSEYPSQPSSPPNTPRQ

[2] = biological target: RSV G^ecto with GalNAc-restricted O-glycosylation (Human respiratory syncytial virus A, …, UniProt P03423); test: cryo-EM structure; conditions: both partners purified
RSV G^ecto with GalNAc-restricted O-glycosylation, sequence (P03423 whole entry, looked up): as the sequence (P03423 whole entry, looked up, the tested form may be a part) above

| Binder | binding result [1] | binding result [2] |
| --- | --- | --- |
| B1 | binds | – |
| B2 | binds | – |
| B3 | – | binds |
| B4 | – | binds |
| B5 | binds | – |
